Test results reported in US20230055408A1 (JIANGSU HENGRUI MEDICINE, published 2023).

T1: human CEA protein on the cell surface (human, UniProt P06731 35-685)
T1 construct: whole, on cells; also called CEACAM-5; CD66e
T1 sequence (looked up): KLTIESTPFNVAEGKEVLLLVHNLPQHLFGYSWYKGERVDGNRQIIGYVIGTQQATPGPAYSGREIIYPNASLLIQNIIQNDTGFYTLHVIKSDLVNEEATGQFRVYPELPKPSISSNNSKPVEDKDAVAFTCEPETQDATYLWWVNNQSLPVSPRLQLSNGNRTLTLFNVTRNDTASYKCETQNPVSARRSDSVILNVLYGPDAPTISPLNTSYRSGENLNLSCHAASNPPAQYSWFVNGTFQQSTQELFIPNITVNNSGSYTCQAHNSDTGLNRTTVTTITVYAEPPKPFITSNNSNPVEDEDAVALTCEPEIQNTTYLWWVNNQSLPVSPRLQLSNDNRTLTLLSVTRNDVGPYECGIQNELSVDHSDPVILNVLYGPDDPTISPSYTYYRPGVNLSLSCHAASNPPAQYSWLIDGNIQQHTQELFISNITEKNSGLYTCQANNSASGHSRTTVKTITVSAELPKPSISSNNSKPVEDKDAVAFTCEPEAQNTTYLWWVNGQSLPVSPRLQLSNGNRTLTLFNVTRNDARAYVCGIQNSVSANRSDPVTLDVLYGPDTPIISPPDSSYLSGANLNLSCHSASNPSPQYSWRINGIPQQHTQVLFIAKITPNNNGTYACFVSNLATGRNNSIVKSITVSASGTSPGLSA

T2: monkey CEA expressed on CHO cell surface (cynomolgus monkey)
T2 construct: also called cynoCEA-CHO; monkey CEA proteins on the cell surface
T2 chain: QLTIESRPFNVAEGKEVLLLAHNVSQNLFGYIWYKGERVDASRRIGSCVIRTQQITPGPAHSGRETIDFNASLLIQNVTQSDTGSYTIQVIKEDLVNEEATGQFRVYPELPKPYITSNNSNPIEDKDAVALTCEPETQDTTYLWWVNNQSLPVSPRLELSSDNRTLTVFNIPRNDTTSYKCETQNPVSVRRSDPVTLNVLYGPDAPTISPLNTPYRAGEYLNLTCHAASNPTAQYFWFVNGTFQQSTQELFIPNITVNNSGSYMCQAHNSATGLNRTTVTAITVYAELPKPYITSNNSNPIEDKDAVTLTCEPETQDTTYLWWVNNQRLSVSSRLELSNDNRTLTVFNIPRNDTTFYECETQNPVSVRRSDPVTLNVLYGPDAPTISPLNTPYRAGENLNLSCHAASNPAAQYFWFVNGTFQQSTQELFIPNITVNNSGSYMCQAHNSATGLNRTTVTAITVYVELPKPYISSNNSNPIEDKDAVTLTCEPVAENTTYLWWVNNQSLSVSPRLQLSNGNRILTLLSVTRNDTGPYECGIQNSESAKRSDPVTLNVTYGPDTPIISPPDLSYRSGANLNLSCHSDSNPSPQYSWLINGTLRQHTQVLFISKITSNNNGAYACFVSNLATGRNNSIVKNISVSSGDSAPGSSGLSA


Key:
[1] = biological target: T1, human CEA protein on the cell surface; assay: FACS, MKN45 cells
Procedure: (§1) In order to detect the binding of the antibody to the CEA protein on the cell surface, the binding activity of the antibody was determined by FACS using cells expressing CEA on the cell surface. Cells were harvested and centrifuged at 400 g at 4° C. for 5 min. Pre-cooled PBS containing FBS at final concentration 10% was added, and the mixture was centrifuged at 400 g at 4° C. for 5 min; the procedures were repeated twice. The cells were seeded into a 96-well plate at 10⁵ cells/well, and 100 μL of gradient diluted antibody solution was added to each well. The plate was incubated at 4° C. for 60 min and centrifuged, and the supernatant was removed. 250 μL of pre-cooled PBS containing FBS at final concentration 10% was added to each well to resuspend the cells, and the suspension was centrifuged at 400 g at 4° C. for 5 min, followed by the removal of the supernatant; the procedures were repeated twice. 50 μL of 1:200 diluted secondary antibody Alexa Fluor@488 goat anti-human IgG (H+L) (Lifetechologies, Cat #A11013) was added. […] 250 μL of pre-cooled PBS containing FBS at final concentration 10% was added to each cell to resuspend the cells, and the suspension was centrifuged at 400 g at 4° C. for 5 min; the procedures were repeated twice. 100 μL of pre-cooled PBS was added to each well to resuspend the cells. The plate was analyzed by a flow cytometer (BD, FACSverse) for fluorescence signal values.

[2] = biological target: T2, monkey CEA expressed on CHO cell surface; assay: FACS, cynoCEA-CHO cells
Procedure: as §1

Binder | EC50 [1] [nM] | EC50 [2] [nM]
Hu103-11 (antibody, human IgG1, lambda) heavy: not shown light: ELVLTQSPSASASLGASVKLTCTLSSQHSTYTIEWYQQQPEKGPRYVMELKKDGSHSTGDGIPDRFSGSSSGAERYLTISSLQSEDEADYYCGVGNTIKEQFVYVFGGGTKLTVLGQPKANPTVTLFPPSSEELQANKATLVCLISDFYPGAVTVAWKADGSPVKAGVETTKPSKQSNNKYAASSYLSLTPEQWKSHRSYSCQVTHEGSTVEKTVAPTECS | 2.71 | 0.92
Hu103-1 (antibody, human IgG1, lambda, V domains shown) VH: EVQLVQSGSELKKPGASVKVSCKASGYTFTTYGVIWVRQAPGQGLEWMGWINTYSGVPTYADDFKGRFVFSLDTSVSTAYLQISSLKAEDTAVYYCARKKTLTTVTPWFAYWGQGTLVTVSS VL: ELVLTQSPSASASLGASVKLTCTLSSQHSTYTIEWHQQQPEKGPRYLMELKKDGSHSTGDGIPDRFSGSSSGAERYLTISSLQSEDEADYYCGVGNTIKEQFVYVFGGGTKLTVLG | 2.37 | 2.49
Hu103-3 (antibody, human IgG1, lambda) heavy: not shown light: ELVLTQSPSASASLGASVKLTCTLSSQHSTYTIEWYQQQPEKGPRYVMELKKDGSHSTGDGIPDRFSGSSSGAERYLTISSLQSEDEADYYCGVGNTIKEQFVYVFGGGTKLTVLGQPKANPTVTLFPPSSEELQANKATLVCLISDFYPGAVTVAWKADGSPVKAGVETTKPSKQSNNKYAASSYLSLTPEQWKSHRSYSCQVTHEGSTVEKTVAPTECS | 1.91 | 1.18
Hu103-2 (antibody, human IgG1, lambda, V domains shown) VH: EVQLVQSGSELKKPGASVKVSCKASGYTFTTYGVIWVRQAPGQGLEWMGWINTYSGVPTYADDFKGRFVFSLDTSVSTAYLQISSLKAEDTAVYYCARKKTLTTVTPWFAYWGQGTLVTVSS VL: ELVLTQSPSASASLGASVKLTCTLSSQHSTYTIEWYQQQPEKGPRYLMELKKDGSHSTGDGIPDRFSGSSSGAERYLTISSLQSEDEADYYCGVGNTIKEQFVYVFGGGTKLTVLG | 2.18 | 1.26
Hu63-5 (antibody, human IgG1, kappa, V domains shown) VH: EVQLVQSGAEVKKPGASVKVSCKASGYTFTDFYMNWVRQAPGQGLEWMGDIFPKNGNTDYNRKFKDRVTLTVDKSTSTVYMELSSLRSEDTAVYYCARSGYGNYVFDYWGQGTLVTVSS VL: DVQMTQSPSSLSASVGDRVTITCRTSQDINIYLNWYQQKPGKAPKLLIYYRSGLLSGVPSRFSGSGSGTDYTLTISSLQPEDFATYYCQQGNTLPPTFGGGTKVEIKR | 3.7 | 2.14
Hu63-11 (antibody, human IgG1, kappa, V domains shown) VH: EVQLVQSGAEVKKPGASVKVSCKASGYTFTDFYMNWVRQAPGQGLEWIGDIFPKNGNTDYNRKFKDKATLTVDKSTSTVYMEFRSLRSEDTAVYYCARSGYGNYVFDYWGQGTLVTVSS VL: DVQMTQSPSSLSASVGDRVTITCRTSQDINIYLNWYQQKPGKAPKLLIYYRSGLLSGVPSRFSGSGSGTDYTLTISSLQPEDFATYYCQQGNTLPPTFGGGTKVEIKR | 4.35 | 2.29
Hu63-12 (antibody, human IgG1, kappa, V domains shown) VH: EVQLVQSGAEVKKPGASVKVSCKASGYTFTDFYMNWVRQAPGQGLEWIGDIFPKNGNTDYNRKFKDKATLTVDKSTSTVYMEFRSLRSEDTAVYYCARSGYGNYVFDYWGQGTLVTVSS VL: DVQMTQSPSSLSASVGDRVTITCRTSQDINIYLNWYQQKPGGAVKLLIYYRSGLLSGVPSRFSGSGSGTDYTLTISSLQPEDFATYYCQQGNTLPPTFGGGTKVEIKR | 4.04 | 2.23
Hu63-3 (antibody, human IgG1, kappa, V domains shown) VH: EVQLVQSGAEVKKPGASVKVSCKASGYTFTDFYMNWVRQAPGQGLEWMGDIFPKNGNTDYNRKFKDRVTMTRDTSTSTVYMELSSLRSEDTAVYYCARSGYGNYVFDYWGQGTLVTVSS VL: DVQMTQSPSSLSASVGDRVTITCRTSQDINIYLNWYQQKPGGAVKLLIYYRSGLLSGVPSRFSGSGSGTDYTLTISSLQPEDFATYYCQQGNTLPPTFGGGTKVEIKR | 3.56 | 2.01
Hu63-8 (antibody, human IgG1, kappa, V domains shown) VH: EVQLVQSGAEVKKPGASVKVSCKASGYTFTDFYMNWVRQAPGQGLEWIGDIFPKNGNTDYNRKFKDRATLTVDKSTSTVYMEFSSLRSEDTAVYYCARSGYGNYVFDYWGQGTLVTVSS VL: DVQMTQSPSSLSASVGDRVTITCRTSQDINIYLNWYQQKPGKAPKLLIYYRSGLLSGVPSRFSGSGSGTDYTLTISSLQPEDFATYYCQQGNTLPPTFGGGTKVEIKR | 3.24 | 2.43
Hu63-6 (antibody, human IgG1, kappa, V domains shown) VH: EVQLVQSGAEVKKPGASVKVSCKASGYTFTDFYMNWVRQAPGQGLEWMGDIFPKNGNTDYNRKFKDRVTLTVDKSTSTVYMELSSLRSEDTAVYYCARSGYGNYVFDYWGQGTLVTVSS VL: DVQMTQSPSSLSASVGDRVTITCRTSQDINIYLNWYQQKPGGAVKLLIYYRSGLLSGVPSRFSGSGSGTDYTLTISSLQPEDFATYYCQQGNTLPPTFGGGTKVEIKR | 3.71 | 2.88
Hu63-10 (antibody, human IgG1, kappa, V domains shown) VH: EVQLVQSGAEVKKPGASVKVSCKASGYTFTDFYMNWVRQAPGQGLEWIGDIFPKNGNTDYNRKFKDKATLTVDKSTSTVYMEFRSLRSEDTAVYYCARSGYGNYVFDYWGQGTLVTVSS VL: DIQMTQSPSSLSASVGDRVTITCRTSQDINIYLNWYQQKPGKAPKLLIYYRSGLLSGVPSRFSGSGSGTDFTLTISSLQPEDFATYYCQQGNTLPPTFGGGTKVEIKR | 4.95 | 1.88
Hu63-4 (antibody, human IgG1, kappa, V domains shown) VH: EVQLVQSGAEVKKPGASVKVSCKASGYTFTDFYMNWVRQAPGQGLEWMGDIFPKNGNTDYNRKFKDRVTLTVDKSTSTVYMELSSLRSEDTAVYYCARSGYGNYVFDYWGQGTLVTVSS VL: DIQMTQSPSSLSASVGDRVTITCRTSQDINIYLNWYQQKPGKAPKLLIYYRSGLLSGVPSRFSGSGSGTDFTLTISSLQPEDFATYYCQQGNTLPPTFGGGTKVEIKR | 5.18 | 1.95
Hu63-1 (antibody, human IgG1, kappa, V domains shown) VH: EVQLVQSGAEVKKPGASVKVSCKASGYTFTDFYMNWVRQAPGQGLEWMGDIFPKNGNTDYNRKFKDRVTMTRDTSTSTVYMELSSLRSEDTAVYYCARSGYGNYVFDYWGQGTLVTVSS VL: DIQMTQSPSSLSASVGDRVTITCRTSQDINIYLNWYQQKPGKAPKLLIYYRSGLLSGVPSRFSGSGSGTDFTLTISSLQPEDFATYYCQQGNTLPPTFGGGTKVEIKR | 4.23 | 
Hu63-9 (antibody, human IgG1, kappa, V domains shown) VH: EVQLVQSGAEVKKPGASVKVSCKASGYTFTDFYMNWVRQAPGQGLEWIGDIFPKNGNTDYNRKFKDRATLTVDKSTSTVYMEFSSLRSEDTAVYYCARSGYGNYVFDYWGQGTLVTVSS VL: DVQMTQSPSSLSASVGDRVTITCRTSQDINIYLNWYQQKPGGAVKLLIYYRSGLLSGVPSRFSGSGSGTDYTLTISSLQPEDFATYYCQQGNTLPPTFGGGTKVEIKR | 4.87 | 2.47
Hu63-2 (antibody, human IgG1, kappa, V domains shown) VH: EVQLVQSGAEVKKPGASVKVSCKASGYTFTDFYMNWVRQAPGQGLEWMGDIFPKNGNTDYNRKFKDRVTMTRDTSTSTVYMELSSLRSEDTAVYYCARSGYGNYVFDYWGQGTLVTVSS VL: DVQMTQSPSSLSASVGDRVTITCRTSQDINIYLNWYQQKPGKAPKLLIYYRSGLLSGVPSRFSGSGSGTDYTLTISSLQPEDFATYYCQQGNTLPPTFGGGTKVEIKR | 3.73 | 
